US20240360228A1 (BIOLEGEND, published 2024)
Changes are numbered by the printed parent chain.

B1: AB8 (antibody, V domains shown)
VH: AVQLVESGGGLVQPKESLKISCAASGFIFSNAAMYWVRQAPGKGLQWVARIRTKPKNYATYYIDSVKGRFTISRDDSKSMVYLQMDNLKTEDTAMYYCNTMGLTRAYYFDYWGQGVMVTVSS
VL: DIQMTQSPSFLSASVGDRVTINCKASQNINRYLNWYQQKLGEAPKLLIYNANSLQTGIPSRFSGSGSGTDFTLTIRSLQPEDVATYFCLQHNSWPWTFGGGTKLELK
notes: Hybridoma monoclonal; also called antibody 8; clone 8
B2: AB10 (antibody, V domains shown)
VH: EVQLVETGGGLVQPKGSLKLSCAVSGFTFKTNAMNWVRQAPGKGLEWVARIRSKSNKYATYYADSVKDRFTISRDDSQSMLYLQMNNLKTEDTAMYYCVRGSEMGYYYAMDYWGQGTSVTVSS
VL: DIVMTQAAPSVPVTPGESVSISCRSSKSLLHSNGNTYLYWFLQRPGQSPQLLIYRMSNLASGVPDRFSGSGSGTAFTLRISRVEAEDVGVYYCMQHLEYPFTFGGGTKLEIK
notes: Hybridoma monoclonal; also called antibody 10; clone 10
B3: AB11 (antibody, V domains shown)
VH: EVQLVESGGGLVQPKGSLKLSCAASGFAFNTYAMNWVRQAPGKGLEWIARLRSKSNFYATYYADSVKDRFTISRDDSQSMLYLQMNNLKTEDTAVYYCVRGRELGPSYAMDYWGQGTSVTVSS
VL: B2 VL with F101Y
notes: Hybridoma monoclonal; also called antibody 11; clone 11

These binders were tested against T1, human CCR8 (human, UniProt P51685 1-355) (assay: flow blocking, PBMC CCR8+CD3+; competitor PE-AB7).
T1 construct: Native CCR8 on human PBMC (CCR8+ CD3+ or CCR8+ CD4+ lymphocytes); also called chemokine (C-C motif) receptor 8
Method: (§1) For blocking studies, 100 μL of the cell suspension were incubated with 10 μg purified isotype control, AB1, AB2, AB3, AB4, AB5, AB8, AB9, AB10, AB11, AB12, AB13, AB14, AB15, and Commercial ABI antibodies, or isotype control, as blocking agents.
(§2) After incubation with the blocking agent, the cells were incubated with 0.25 μg of the indicated PE-conjugated antibody plus anti-human CD4 APC or anti-human CD3 for another 15 minutes in the dark and then washed 2 times with Cell Staining Buffer, and acquired in a FACSCanto II flow cytometer (BD Biosciences); the data was analyzed using FCS Express (De Novo Software); MFI correspond to the CCR8+ CD4+ lymphocytes or CCR8+ CD3+ lymphocytes.
(§3) Percentage original MFI was calculated by dividing the MFI of samples blocked with AB1, AB2, AB3, AB4, AB5, AB6, AB7, AB8, AB9, AB10, AB11, AB12, AB13, AB14, AB15, and Commercial ABI antibodies, by the MFI of samples blocked with the corresponding isotype control. This value was subtracted from 100 to get a blocking percentage. The formula is shown below: […]

T1 sequence (P51685 whole entry): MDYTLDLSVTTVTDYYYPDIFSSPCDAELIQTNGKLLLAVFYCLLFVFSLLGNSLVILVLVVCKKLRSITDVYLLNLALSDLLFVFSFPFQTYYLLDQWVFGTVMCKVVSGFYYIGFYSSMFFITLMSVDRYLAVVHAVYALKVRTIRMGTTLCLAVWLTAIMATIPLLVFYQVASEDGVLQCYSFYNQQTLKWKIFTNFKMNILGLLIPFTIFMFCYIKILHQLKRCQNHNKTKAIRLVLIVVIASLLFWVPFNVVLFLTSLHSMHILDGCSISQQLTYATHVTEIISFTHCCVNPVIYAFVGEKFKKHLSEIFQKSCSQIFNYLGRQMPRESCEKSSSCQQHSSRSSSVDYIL

Binder	% Blocking [%]	MFI
B1	26.1	863
B2	52.1	559
B3	13.1	1020

Each binder was assayed against T1, human CCR8 (assay: flow blocking, PBMC CCR8+CD3+; competitor PE-AB5).
Method: as §1, §2, §3

Binder	% Blocking [%]	MFI
B1	-11.8	1100
B2	-8.37	1070
B3	-2.94	1020

What follows are binders tested against T1, human CCR8 (assay: flow blocking, PBMC CCR8+CD4+; competitor PE-433H).
Method: as §1, §2

Binder	% Blocking [%]	% Positive cells [%]
B1	92.6	0.13
B2	28.4	1.26
B3	38.6	1.08

The binders below were run against T1, human CCR8 (assay: flow blocking, PBMC CCR8+CD3+; competitor PE-AB8).
Method: as §1, §2, §3

Binder	% Blocking [%]	MFI
B1	26.9	870
B2	51.6	575
B3	17.8	977

The binders below were run against T1, human CCR8 (assay: flow blocking, PBMC CCR8+CD4+; competitor PE-AB3).
Method: as §1, §2, §3

Binder	% Blocking [%]	% Positive cells [%]
B1	-27.5	2.18
B2	-50.9	2.58
B3	-26.3	2.16

These binders were tested against T1, human CCR8 (assay: flow blocking, PBMC CCR8+CD4+; competitor PE-AB1).
Method: as §1, §2, §3

Binder	% Blocking [%]	% Positive cells [%]
B1	-41.9	2.2
B2	-47.1	2.28
B3	-31.6	2.04

Each binder was assayed against T1, human CCR8 (assay: flow blocking, PBMC CCR8+CD4+; competitor PE-AB11).
Method: as §1, §2, §3

Binder	% Blocking [%]	% Positive cells [%]
B1	98.5	0.03
B2	98.5	0.03
B3	96.9	0.06

Each binder was assayed against T1, human CCR8 (assay: flow blocking, PBMC CCR8+CD4+; competitor PE-AB5).
Method: as §1, §2, §3

Binder	% Blocking [%]	% Positive cells [%]
B1	-8.42	2.19
B2	-17.8	2.38
B3	-27.7	2.58

Each binder was assayed against T1, human CCR8 (assay: flow blocking, PBMC CCR8+CD4+; competitor PE-AB2).
Method: as §1, §2, §3

Binder	% Blocking [%]	% Positive cells [%]
B1	-38.4	2.27
B2	-40.2	2.3
B3	-22.6	2.01

What follows are binders tested against T1, human CCR8 (assay: flow blocking, PBMC CCR8+CD4+; competitor PE-AB14).
Method: as §1, §2

Binder	% Blocking [%]	% Positive cells [%]
B1	96.9	0.04
B2	89.2	0.14
B3	99.2	0.01

These binders were tested against T1, human CCR8 (assay: flow blocking, PBMC CCR8+CD4+; competitor PE-AB10).
Method: as §1, §2, §3

Binder	% Blocking [%]	% Positive cells [%]
B1	91.2	0.13
B2	93.2	0.1
B3	-2.7	1.52

The binders below were run against T1, human CCR8 (assay: flow blocking, PBMC CCR8+CD3+; competitor PE-AB11).
Method: as §1, §2, §3

Binder	% Blocking [%]	MFI
B1	45.9	502
B2	55.2	416
B3	42.7	532

The binders below were run against T1, human CCR8 (assay: flow blocking, PBMC CCR8+CD4+; competitor PE-AB12).
Method: as §1, §2, §3

Binder	% Blocking [%]	% Positive cells [%]
B1	98.9	0.02
B2	98.9	0.02
B3	98.3	0.03

What follows are binders tested against T1, human CCR8 (assay: flow blocking, PBMC CCR8+CD4+; competitor PE-AB13).
Method: as §1, §2

Binder	% Blocking [%]	% Positive cells [%]
B1	93.4	0.13
B2	97.5	0.05
B3	96.5	0.07

Each binder was assayed against T1, human CCR8 (assay: flow blocking, PBMC CCR8+CD3+; competitor PE-AB15).
Method: as §1, §2, §3

Binder	% Blocking [%]	MFI
B1	45.2	471
B2	43.3	487
B3	52	412

What follows are binders tested against T1, human CCR8 (assay: flow blocking, PBMC CCR8+CD3+; competitor PE-433H).
Method: as §1, §2, §3

Binder	% Blocking [%]	MFI
B1	53	417
B2	32.1	602
B3	43.3	503

Each binder was assayed against T1, human CCR8 (assay: flow blocking, PBMC CCR8+CD3+; competitor PE-AB13).
Method: as §1, §2, §3

Binder	% Blocking [%]	MFI
B1	-50.2	1330
B2	43.6	499
B3	34.6	579

What follows are binders tested against T1, human CCR8 (assay: flow blocking, PBMC CCR8+CD4+; competitor PE-AB15).
Method: as §1, §2, §3

Binder	% Blocking [%]	% Positive cells [%]
B1	98.5	0.02
B2	88.4	0.15
B3	93.8	0.08

The binders below were run against T1, human CCR8 (assay: flow blocking, PBMC CCR8+CD3+; competitor PE-AB14).
Method: as §1, §2, §3

Binder	% Blocking [%]	MFI
B1	46.4	463
B2	38.9	528
B3	41.4	506

The binders below were run against T1, human CCR8 (assay: flow blocking, PBMC CCR8+CD3+; competitor PE-L263G8).
Method: as §1, §2, §3

Binder	% Blocking [%]	MFI
B1	13.1	585
B2	10.2	605
B3	36.6	427

What follows are binders tested against T1, human CCR8 (assay: flow blocking, PBMC CCR8+CD3+; competitor PE-AB6).
Method: as §1, §2, §3

Binder	% Blocking [%]	MFI
B1	-17.3	1080
B2	-27	1170
B3	-8.93	1010

Each binder was assayed against T1, human CCR8 (assay: flow blocking, PBMC CCR8+CD4+; competitor PE-AB4).
Method: as §1, §2, §3

Binder	% Blocking [%]	% Positive cells [%]
B1	-19.7	2.13
B2	-38.8	2.47
B3	-27	2.26

Each binder was assayed against T1, human CCR8 (assay: flow blocking, PBMC CCR8+CD4+; competitor PE-AB6).
Method: as §1, §2

Binder	% Blocking [%]	% Positive cells [%]
B1	-14.4	2.31
B2	-7.92	2.18
B3	-5.45	2.13

The binders below were run against T1, human CCR8 (assay: flow blocking, PBMC CCR8+CD3+; competitor PE-AB10).
Method: as §1, §2, §3

Binder	% Blocking [%]	MFI
B1	23.7	608
B2	30.7	552
B3	34.4	522

The binders below were run against T1, human CCR8 (assay: flow blocking, PBMC CCR8+CD3+; competitor PE-AB12).
Method: as §1, §2, §3

Binder	% Blocking [%]	MFI
B1	48.4	527
B2	47.6	536
B3	48	531
